In series [1] the target is T1, Gk-S15 (ribosomal protein S15) (Geobacillus kaustophilus, UniProt Q5L0I3 1-89). In words: filter binding; Fmax 44%; poor 1:1 fit; SELEX Binding Buffer A: 50 mM Tris/acetate pH 7.5, 20 mM Mg-acetate, 270 mM KCl, 5 mM DTT, 0.02% BSA, 25 C, 30 min; filter binding (nitrocellulose/nylon) as previously described. As to conditions: protein: recombinant; tags: expressed from pET-HT; label: 5'-32P.

Series [2] deals with T1, Gk-S15 (ribosomal protein S15). In words: filter binding; Fmax 21%; SELEX Binding Buffer A: 50 mM Tris/acetate pH 7.5, 20 mM Mg-acetate, 270 mM KCl, 5 mM DTT, 0.02% BSA, 25 C, 30 min; filter binding (nitrocellulose/nylon) as previously described. As to conditions: protein: recombinant; tags: expressed from pET-HT; label: 5'-32P.
Series [3] shares this target. Briefly: filter binding; Fmax 55%; SELEX Binding Buffer A: 50 mM Tris/acetate pH 7.5, 20 mM Mg-acetate, 270 mM KCl, 5 mM DTT, 0.02% BSA, 25 C, 30 min; filter binding (nitrocellulose/nylon) as previously described. As to conditions: protein: recombinant; tags: expressed from pET-HT; label: 5'-32P.
The target is the same in series [4]. In words: filter binding; Fmax 0.36; SELEX Binding Buffer A: 50 mM Tris/acetate pH 7.5, 20 mM Mg-acetate, 270 mM KCl, 5 mM DTT, 0.02% BSA, 25 C, 30 min; filter binding (nitrocellulose/nylon) as previously described. As to conditions: protein: recombinant; tags: expressed from pET-HT; label: 5'-32P.
For series [5] the target is unchanged. Briefly: filter binding; Fmax 0.56; text says abolished; SELEX Binding Buffer A: 50 mM Tris/acetate pH 7.5, 20 mM Mg-acetate, 270 mM KCl, 5 mM DTT, 0.02% BSA, 25 C, 30 min; filter binding (nitrocellulose/nylon) as previously described. As to conditions: protein: recombinant; tags: expressed from pET-HT; label: 5'-32P; H1 disrupted.
The target is the same in series [6]. In words: filter binding; Fmax 0.85; SELEX Binding Buffer A: 50 mM Tris/acetate pH 7.5, 20 mM Mg-acetate, 270 mM KCl, 5 mM DTT, 0.02% BSA, 25 C, 30 min; filter binding (nitrocellulose/nylon) as previously described. Particulars: protein: recombinant; tags: expressed from pET-HT; label: 5'-32P; H1 restored.
For series [7], the target named is T2, Tt-S15 (ribosomal protein S15) (Thermus thermophilus, UniProt Q5SJ76 1-89). In words: filter binding; Fmax 78%; SELEX Binding Buffer A: 50 mM Tris/acetate pH 7.5, 20 mM Mg-acetate, 270 mM KCl, 5 mM DTT, 0.02% BSA, 25 C, 30 min; filter binding (nitrocellulose/nylon) as previously described. As to conditions: protein: recombinant; tags: expressed from pET-HT; label: 5'-32P; helices H1-H3.

The target of series [8] is T1, Gk-S15 (ribosomal protein S15). In words: filter binding; Fmax 70%; SELEX Binding Buffer A: 50 mM Tris/acetate pH 7.5, 20 mM Mg-acetate, 270 mM KCl, 5 mM DTT, 0.02% BSA, 25 C, 30 min; filter binding (nitrocellulose/nylon) as previously described. As to conditions: protein: recombinant; tags: expressed from pET-HT; label: 5'-32P; helices H1-H3.
The target is the same in series [9]. In words: filter binding; Fmax 0.71; SELEX Binding Buffer A: 50 mM Tris/acetate pH 7.5, 20 mM Mg-acetate, 270 mM KCl, 5 mM DTT, 0.02% BSA, 25 C, 30 min; filter binding (nitrocellulose/nylon) as previously described. As to conditions: protein: recombinant; tags: expressed from pET-HT; label: 5'-32P; H2 disrupted.
The target is the same in series [10]. In words: filter binding; Fmax 79%; SELEX Binding Buffer A: 50 mM Tris/acetate pH 7.5, 20 mM Mg-acetate, 270 mM KCl, 5 mM DTT, 0.02% BSA, 25 C, 30 min; filter binding (nitrocellulose/nylon) as previously described. As to conditions: protein: recombinant; tags: expressed from pET-HT; label: 5'-32P.
Series [11] deals with T2, Tt-S15 (ribosomal protein S15). Briefly: filter binding; Fmax 25%; SELEX Binding Buffer A: 50 mM Tris/acetate pH 7.5, 20 mM Mg-acetate, 270 mM KCl, 5 mM DTT, 0.02% BSA, 25 C, 30 min; filter binding (nitrocellulose/nylon) as previously described. Particulars: protein: recombinant; tags: expressed from pET-HT; label: 5'-32P.
The target of series [12] is T1, Gk-S15 (ribosomal protein S15). Briefly: filter binding; Fmax 40%; SELEX Binding Buffer A: 50 mM Tris/acetate pH 7.5, 20 mM Mg-acetate, 270 mM KCl, 5 mM DTT, 0.02% BSA, 25 C, 30 min; filter binding (nitrocellulose/nylon) as previously described. Particulars: protein: recombinant; tags: expressed from pET-HT; label: 5'-32P.

Substitutions are numbered along the chain they refer to.

T2 sequence (Q5SJ76 whole entry): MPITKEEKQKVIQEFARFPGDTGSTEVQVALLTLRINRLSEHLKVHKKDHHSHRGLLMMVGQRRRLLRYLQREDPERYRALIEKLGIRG

B1: 11-5 (structured_RNA)
RNA: UGCGUAACGUACACUAAAGACGGAAGGCCAAAACCUAUGCUUACCCUUUACUUUGGAGUUUUAAAAUGUCUCUAAGUACUGAAGCAACAGCU
Take B1: in series [1], the dissociation constant Kd (commonly the equilibrium constant for the complex coming apart) came to 10 ± 1.4 nM.

B2: 11-4 (structured_RNA)
RNA: UGCGUAACGUACACUGAACAAUCCCAGCGCUCUAUGGAAUCUGCAUCAUCUAUUCUUUGGAGUUUAAAUGUCUCUAAGUACUGAAGCAACAGCU
As for B2, the Kd in [2] was found to be 8.5 ± 2 nM.

B3: 11-6 (structured_RNA)
RNA: UGCGUAACGUACACUGAAGACCGCGAACUACAAACGUAACUCGGUUCAUUCUAUAUACUUUAGAGUUUUAAAAUGUCUCUAAGUACUGAAGCAACAGCU
Regarding B3, the Kd in series [3] stood at 289 ± 121 nM.

B4: 11-1-M4 (structured_RNA)
RNA: UGCGUAACGUACACUUCCUUCGCUUAUUCGGAGUAGAUCACGUGAUCAUUCUGUAUGCUUUGGAG
Regarding B4, in series [4], the dissociation constant (Kd) was found to be 7.7 ± 5.89 nM.

B5: 11-1-M2 (structured_RNA)
RNA: UUGGUAACGUACACUUCCUUCGCUUAUUCGGAGUAGAUCACGUGAUCAUUCUGUAUGCUUUGGAGUUUUAAAAUGUCUCUAAGUACUGAAGCAACAGCU
For B5, the Kd in series [5] turned out to be 56.5 ± 5.74 nM.

B6: 11-1-M3 (structured_RNA)
RNA: B5 RNA with G9C, U10G
For the molecule B6, the Kd in series [6] amounted to 20.9 ± 6.3 nM.

B7: 11-1 (structured_RNA)
RNA: B5 RNA with U2G, G3C
Regarding B7, the results for the Kd in series [7] and in [8] were 94.9 ± 22.5 nM and 0.9 ± 0.02 nM, respectively.

B8: 11-1-M8 (structured_RNA)
RNA: B5 RNA with U2G, G3C, A64U, G65C
As to B8, the Kd in series [9] is 84.5 ± 14.5 nM.

B9: 11-2 (structured_RNA)
RNA: UGCGUAACGUACACUCCCUACUCGUGGAUUGGACUCUAUAAUAGAUCAUUCUAUAUACUGUGGAGCUUAAAAUGUCUCUAAGUACUGAAGCAACAGCU
For the molecule B9, the dissociation constant (Kd) in [10] worked out at 9.7 ± 1.6 nM; in [11] it was 39 ± 6.27 nM.

B10: 11-3 (structured_RNA)
RNA: UGCGUAACGUACACUCCGAUGUUACCCGCGCGAGGUCAUUGGUACUCAAUCUAUAUACUUUGGAGUUUUAAAUGUCUCUAAGUACUGAAGCAACAGCU
On to B10, for which the dissociation constant (Kd) in series [12] is 20.7 ± 15.2 nM.

For the origin of these results see article PMC5100602, “RNA regulators responding to ribosomal protein S15 are frequent in sequence space”.
